The values that follow come from publication PMC9334538 (2022).

The target of this assay is WT SARS-CoV-2 RBD (amino acids 321 to 591 of spike) (SARS-CoV-2, UniProt P0DTC2 321-591). The experiment in a line: SPR. In general terms: In SPR one partner is held on a chip, and binding of the other changes the refractive index at the surface.

B1: aRBD-5-Fc (Fc fusion)
chain: QVQLVESGGGLVQPGGTLRLSCAASGFTLDYYAIGWFRQAPGKEREGVSCISGSGGITNYTDSVKGRFTISRDNAKNTVYLQMNSLKPEDTAVYYCAPVSHTVVAGCAFEAWTDFGSWGQGTQVTVSS
For the molecule B1, the koff (as a rule, a measure of how fast the partners let go of each other) was 0.0143 s⁻¹.
